# Data: patent US11059903B2, “Anti-PSMA antibodies, uses thereof and conjugates thereof” (Polytherics Limited, priority 2016, dated 2021)
# pIC50: −log10 of the molar value. Square brackets hold non-standard residues; d marks the D form. Peptide text beside a SMILES is read from it. * marks the point of attachment. Dolaproine = CO[C@@H]([C@@H]1CCCN1)[C@@H](C)C(=O)O; Dil = CC[C@H](C)[C@H](NC)[C@@H](CC(=O)O)OC; X1 = C[C@@H](N*)[C@@H](O)c1ccccc1; NMeV = CN[C@H](C(=O)O)C(C)C
# Tests used:
# LNCaP cells = test: In vitro cell viability assay (CellTiter Glo) on LNCaP cells; assay type: cell-based; details: anti-proliferative effect, 96 h
# Experimental: (§1) The in vitro efficacies of ADCs 1 to 7, prepared as described within Example 4, were determined by measuring their inhibitory effect upon cell growth of PSMA over-expressing cancer cell lines.
# (§2) Loss of tumour cell viability following treatment with cytotoxic drugs or ADCs in vitro can be measured by growing cell lines in the presence of increasing concentrations of drugs or ADCs and quantifying the loss of proliferation or metabolic activity using CellTiter Glo® Luminescence reagent (Promega Corp.). The protocol describes cell seeding, drug treatment and determination of the cell viability in reference to untreated cells based on ATP synthesis, which is directly related to the number of cells present in the well. […]
# (§3) The cell viability assay was carried out using the Cell-Titer Glo® Luminescence reagent, as described by the manufacturer's instructions, (Promega Corp. Technical Bulletin TB288; Lewis Phillips G. D, Cancer Res 2008; 68:9280-9290). Luminescence was recorded using a plate reader (e.g. Molecular Devices Spectramax M3 plate reader), and data subsequently analysed using a four parameter non-linear regression model. […]
# (§4) PSMA-positive LNCaP (clone FGC) and C4-2 cells were detached with TrypLE and resuspended in complete medium. Cells were counted using disposable Neubauer counting chambers and cell density adjusted to 10×10^4 cells/mL for LNCaP and 2×10^4 cells/mL for C4-2. […]
# C4-2 cells = test: In vitro cell viability assay (CellTiter Glo) on C4-2 cells; assay type: cell-based; details: anti-proliferative effect, 96 h
# Experimental: as §1, §2, §3, §4
# [1] = Heat stress test, aggregation analysed by SEC; assay type: physicochemical
# Experimental: Antibody samples (0.5 mg/mL in PBS) were incubated at 75° C. for 30 min followed by incubation in an ice-bath for 5 min prior to being analysed for their extent of aggregation. Analysis of antibody solutions was carried out by Size Exclusion Chromatography (SEC) and by turbidity measurements.
# SEC was performed using a TOSOH Bioscience TSK gel Super SW 3000 column. UV absorbance at 280 nm was monitored during an isocratic elution with a 0.2 M Potassium phosphate buffer, pH 6.8 (0.2 M potassium chloride and 15% isopropanol). The elution times and number of peaks indicate whether the sample contains aggregated, degraded or native antibody. The % area under the curve (Abs280) was used to determine the quantity of each species present in the SEC analysis.
# [2] = post stress test: 0.5 mg/mL in PBS, 75° C. for 30 min, SEC % area
Molecule,pIC50 (LNCaP cells),pIC50 (C4-2 cells),"Stability compared with AB-02 to AB-06 antibodies ([1]; heat stress test, in words)","Ab in aggregated form (%) [1, 2] [%]","Ab in native conformation (%) [1, 2] [%]"
CC[C@H](C)[C@@H]([C@@H](CC(=O)N1CCC[C@H]1[C@H](OC)[C@@H](C)C(=O)N[C@H](C)[C@@H](O)c1ccccc1)OC)N(C)C(=O)[C@@H](NC(=O)[C@@H](NC)C(C)C)C(C)C [MMAE] (H-[NMeV]V[Dil][Dolaproine]-X1),8.65,9.20,,,
"AB-10: Prior art de-immunised J591 anti-PSMA antibody, heavy chain SEQ ID No 3, light chain SEQ ID No 4 [reference compound]",,,less stable,99.6,0.4
